For series [1] the following is noted: patients treated with PRRT; cited from earlier work.
The test system of series [2] is ^177Lu-octreotide PRRT kidney damage mouse model. Kind of series: Short-term radioprotection of kidneys with A1M in PRRT (^177Lu-octreotide PRRT kidney damage mouse model). The method, then: NB, ^177Lu-DOTATATE and A1M are injected separately at T=0. Analytic Methods:
The mice were left for 1 day or 8 days, and then sacrificed with sampling of plasma and urine, as described above.

For series [3] the following is noted: in vivo, iv.
For series [4] the following is noted: mouse, in vivo, iv. The procedure: Organ-specific uptake values were calculated as percent injected activity per gram of tissue (% IA/g) or percent injected activity (% IA).
For series [5] the following is noted: from blood stream; cited from earlier work.
Series [6] can be described thus: SDS-PAGE / Western blotting of injected non-labelled A1M in kidneys and serum. In kind it is in vivo, NMRI mice. The method, then: SDS-PAGE analysis was performed on kidneys and serum from animals that had been injected i.v. with non-labeled A1M (100 μl/animal, 1.5 mg/ml). Animals were terminated at 10, 20 and 60 minutes post-injection, blood and kidneys were sampled and kidneys were washed and placed in 1 ml PBS. Following mechanical tissue homogenization, tissue was centrifuged at 10,000×g for 10 minutes and supernatant was transferred to a new tube and used for further analysis as describe below. Serum was obtained from the blood samples by centrifugation at 1,000×g for 10 minutes. SDS-PAGE gels were run under reducing conditions and the separated proteins were transferred to polyvinylidene difluoride (PVDF) membranes (Immobilon-P, Millipore, Bedford, Mass., USA) using Trans-Blot Turbo transfer system (Bio-Rad, Delaware, USA). […] The membranes were developed using a ChemiDoc MP Imaging system (BioRad).
On the technique in general: In western blotting, separated proteins are transferred to a membrane and probed.

A short description of series [7]: Immunohistochemistry and confocal fluorescence microscopy of A1M and octreotide-647 in kidney sections. The note with it: mouse, in vivo. Also on record: species or system mice. The method, then: However, only wild-type data are included. After euthanization, kidneys were removed directly frozen and embedded in Tissue Tec. […] Serial sectioning was performed, collecting 3-4 sections per slide, of which adjacent slides were used for either chromogen immunohistochemistry (IHC) or immunofluorescence (IF) labeling. Sections were post-fixed in 4% paraformaldehyde (PFA, Sigma, St. Louis, Mo., USA, dissolved in PBS, 0.1 M, pH 7.4) for 15 minutes, and rinsed in PBS two times for 5 minutes. For single labeling of […], sections were incubated with 0.03% hydrogen peroxide (H2O2, Merck, Darmstadt, Germany) for five minutes for chromogen visualization (IHC). For both chromogen and fluorescence visualization sections were incubated with 1% bovine serum albumin (BSA, Sigma, St. Louis, Mo., USA; diluted in PBS) for 30 minutes. Sections were then incubated with rabbit anti-human […] […] The choices of optical sections and scan depths were determined from the centre position of the majority of nuclei (DAPI labeling) in the scanned field. Sequential scanning was performed of channels displaying AF488, HiLyte Fluor 647, DAPI and Texas Red fluorescence. For each channel the renal profile with the highest fluorescence intensities was selected as a reference, from which the acquisition settings (laser power, PMT detector gain, digital offset) were optimized and used for all scanned areas. […]

The values below come from patent publication US10960048B2, “Alpha-1-microglobulin for use in the protection of kidneys in radionuclide therapy” (Guard Therapeutics International AB, priority 2015, dated 2021).

In the case of `C[C@@H](O)[C@H](NC(=O)[C@@H]1CSSC[C@H](NC(=O)[C@@H](Cc2ccccc2)NC(=O)CN2CCN(CC(=O)[O-])CCN(CC(=O)[O-])CCN(CC(=O)[O-])CC2)C(=O)N[C@@H](Cc2ccc(O)cc2)C(=O)N[C@H](Cc2c[nH]c3ccccc23)C(=O)N[C@@H](CCCCN)C(=O)N[C@@H]([C@@H](C)O)C(=O)N1)C(=O)O.[177Lu+3]` [^177Lu-DOTATATE, ^177Lu-DOTA0, Tyr3]octreotate, reference compound], the creatinine clearance loss in series [1] was 3.8 % per year. In series [2] (150 MBq, after 1 and 8 days), the “plasma creatinine levels (marker of GFR) versus control” value is reported as “significantly increased”. Also, the “albumin concentrations in urine (proteinuria) versus control” value in series [2] (150 MBq, after 1 and 8 days, more pronounced after 1 day) is on record as “significantly elevated”.

B1: ^125I-A1M: Recombinant human A1M radiolabelled with 125I using the chloramine T method (protein, UniProt P02760 20-203, looked up)
Alpha-1-microglobulin: GPVPTPPDNIQVQENFNISRIYGKWYNLAIGSTCPWLKKIMDRMTVSTLVLGEGATEAEISMTSTRWRKGVCEETSGAYEKTDTDGKFLYHKSKWNITMESYVVHTNYDEYAIFLTKKFSRHHGPTITAKLYGRAPQLRETLLQDFRVVAQGVGIPEDSIFTMADRGECVPGEQEPEPILIPRV
modifications: Alpha-1-microglobulin 125I radiolabel
As for B1, in series [3], the “fraction of i.v. administered substance localized in kidneys” value was over 30%. For the same molecule, in series [4], the “time of maximum (peak) uptake in the kidneys post-injection” value came out at 20 min and the “uptake in the kidneys (biodistribution)” value was “High uptake”.

B2: α1-microglobulin (protein, listed as Homo sapiens)
chain: MHHHHHHHHGGGGGIEGRGPVPTPPDNIQVQENFNISRIYGKWYNLAIGSTCPWLKKIMDRMTVSTLVLGEGATEAEISMTSTRWRKGVCEETSGAYEKTDTDGKFLYHKSKWNITMESYVVHTNYDEYAIFLTKKFSRHHGPTITAKLYGRAPQLRETLLQDFRVVAQGVGIPEDSIFTMADRGECVPGEQEPEPILIPR
notes: Recombinant human A1M expressed in E. coli
With B2, the “T½ of transport across the vessel walls to the extravascular compartment” value in series [5] is 2 to 3 min. For the same molecule, the “GFR (plasma creatinine) on simultaneous infusion of A1M” value in series [2] (150 μg A1M + 150 MBq 177Lu-DOTATATE, 1 and 8 days, highly significant after 8 days (P<0.01)) was “restored the GFR to control levels”. In addition, the “proteinuria (urine albumin) on simultaneous A1M-treatment, after 1 day” value in series [2] (150 μg A1M + 150 MBq 177Lu-DOTATATE, 1 day) is recorded as “significantly reduced”. For the same molecule, the “significantly reduced proteinuria (urine albumin) on simultaneous A1M-treatment, after 8 days” value in series [2] (150 μg A1M + 150 MBq 177Lu-DOTATATE, 8 days) is given as “not”. The “state of A1M found in blood and kidneys” value in series [6] (10, 20 and 60 minutes post-injection, 150 μg A1M i.v.) was “intact, full-length”. The “time of highest amounts of A1M in kidneys and serum” value in series [6] (Western blot, 10, 20 and 60 minutes post-injection) came to 10 min. For the same molecule, the “time post-injection up to which A1M is intact, full-length” value in series [6] (kidneys, i.v. injection) was at least 60 min. Further, in series [7], the “fluorescence detection in kidney at 4 hours p.i.” value is listed as “significant decrease”. Also, in series [4], the “maximum of injected substance found per gram kidney tissue” value is listed as 76% and the “time of maximum (peak) uptake in the kidneys post-injection” value came to 10 min.
